Assay results: paper PMC8639918 (2021)

Target: PHR2^(230–426 L348A/L358A/I362A) (rice, UniProt Q6Z156 230-426, L348A | L358A | I362A)
Test: ITC; with InsP6

Kd: 140 nM
B1: SPX1^1–259 (C-terminally truncated fragment of rice SPX1) (domain or fragment)
chain: MKFGKSLSSQIVETLPEWRDKFLSYKDLKKRLKLIGGGGGGEERQAKRARVAADGGEEEAAAAAMTPEEAGFMRLLEAELDKFNSFFVEKEEEYIIRQKELQDRVARAAGRESKEELMRVRKEIVDFHGEMVLLENYSALNYTGLVKILKKYDKRTGALIRLPFIQKVLQQPFFTTDLLYKLVKQCEAMLDQLLPSNELSVSSEDGRGDSTNEDKPSNPSSSLVNGGTIPELDEIEYMESMYMKGTVAALRSLKEIRSG
